Experimental data as given in patent US20170037149A1 (Amgen, published 2017).

B1: FL-26 scFv (scFv)
scFv: QVTLKESGPVLVKPTETLTLTCTVSGFSFRNARMGVSWIRQPPGKALEWLAHIFSNDEKSYSTSLKSRLTISKDTSKSQVVLTLTNMDPVDTATYFCARMPEYSSGWSGAFDIWGQGTMVTVSSGGGGSGGGGSGGGGSDIQMTQSPSSLSASVGDRVTITCRASQGIRNDLVWYQQKPGKAPKRLIYGTSTLQSGVPSRFSGSGSGTEFTLTISSLQPEDFATYYCLQHNSYPLTFGGGTKVEIK
notes: periplasmic prep
B2: FL-25 scFv (scFv)
scFv: QVTLKESGPALVKPTETLTLTCTVSGFSFRNARMGVSWIRQPPGKALEWLAHIFSNDEKSYSTSLKSRLTISKDTSKSQVVLTLTNMDPVDTATYFCARMPEYSSGWSGAFDIWGQGTMVTVSSGGGGSGGGGSGGGGSDIQMTQSPSSLSASVGDRVTITCRASQDIRDDLGWYQQKPGKAPKRLIYAASTLQSGVPSRFTGGGSGTEFTLTISSLQPEDFATYYCLQHNSFPFTFGGGTKVEIK
notes: periplasmic prep
B3: FL-23 scFv (scFv)
scFv: QVTLKESGPALVKPTETLTLTCTVSGFSFRNARMGVSWIRQPPGKALEWLAHIFSNDEKSYSTSLKSRLTISKDTSKSQVVLTLTNMDPVDTATYFCARMPEYSSGWSGAFDIWGQGTMVTVSSGGGGSGGGGSGGGGSDIQMTQSPSSLSASVGDRVTITCRASQDIGYDLGWYQQKPGKAPKRLIYAASTLQSGVPSRFSGSGSGTEFTLIISSLQPEDFATYYCLQHNSFPWTFGQGTKVEIK
notes: periplasmic prep
B4: FL-28 scFv (scFv)
scFv: QVTLKESGPVLVKPTETLTLTCTVSGFSFRNARMGVSWIRQPPGKALEWLAHIFSNDEKSYSTSLKSRLTISKDTSKSQVVLTLTNMDPVDTATYFCARMPEYSSGWSGAFDIWGQGTMVTVSSGGGGSGGGGSGGGGSDIQMTQSPSSLSASVGDRVTITCRASQGIGDDLGWYQQIPGKAPKRLIYATSVLQSGVPSRFSGSGSGTEFTLTISSLQPEDFATYYCLQHNSYPLTFGGGTKVEIK
notes: periplasmic prep
B5: FL-38 scFv (scFv)
scFv: QVTLKESGPVLVKPTETLTLTCTVSGFSFRNARMGVSWIRQPPGKALEWLAHIFSNDEKSYSTSLKSRLTISKDTSKSQVVLTLTNMDPVDTATYFCARMPEYSSGWSGAFDIWGQGTLVTVSSGGGGSGGGGSGGGGSDIQMTQSPSSLSASVGDRVTITCRASQGIRNDLGWYQQKPGKAPKRLIYAASSLQSGVPSRFSGSGSGTEFTLTISSLQPEDFATYYCLQHNSYPLTFGGGTKLEIK
notes: periplasmic prep
B6: FL-24 scFv (scFv)
scFv: QVTLKESGPALVKPTETLTLTCTVSGFSLRNVRMGVSWIRQPPGKALEWLAHIFSNDEKSYSTSLKSRLTISKDTSKSQVVLILTNMDPVDTATYFCARMPEYSSGWSGAFDIWGQGTMVTVSSGGGGSGGGGSGGGGSDIQMTQSPSSLSASVGDRVTITCRASQDIRDDLVWYQQKPGKAPKRLIYAASTLQSGVPSRFSGSGSGTEFTLTISSLQPEDFATYYCLQHHSYPWTFGQGTKVEIK
notes: periplasmic prep
B7: FL-36 scFv (scFv)
scFv: QVTLKESGPTLVKPTETLTLTCTFSGFSLRYARMGVSWIRQPPGKALEWLAHIFSNDEKSYSTSLKSRLTISKDTSKSQVVLTLTNMDPVDTATYFCARMPEYSSGWSGAFDIWGQGTMVTVSSGGGGSGGGGSGGGGSDIQMTQSPSSLSASVGDRVTITCRASQDIRNDLAWYQQKPGKAPKRLIYAASSLQSGVPSRFSGSGSGTEFTLTISSLQPEDFATYYCLQHNSYPLTFGGGTKLEIK
notes: periplasmic prep
B8: FL-27 scFv (scFv)
scFv: QVTLKESGPVLVKPTETLTLTCTVSGFSFRNARMGVSWIRQPPGKALEWLAHIFSNDEKSYSTSLKSRLTISKDTSKSQVVLTLTNMDPVDTATYFCARMPEYSSGWSGAFDIWGQGTMVTVSSGGGGSGGGGSGGGGSDIQMTQSPSSLSASVGDRVTITCRTSQGIRNDLVWYQQKPGKAPKRLIYAASTLQSGVPSRFSGSGSGTEFTLTISSLQPEDFATYFCLQHYSYPLTFGGGTKVEIK
notes: periplasmic prep
B9: FL-52 scFv (scFv)
scFv: QVTLKESGPTLVKPTETLTLTCTFSGFSLRYARMGVSWIRQPPGKCLEWLAHIFSNDEKSYSTSLKSRLTISKDTSKSQVVLTLTNMDPVDTATYFCARMPEYSSGWSGAFDIWGQGTMVTVSSGGGGSGGGGSGGGGSDIQMTQSPSSLSASVGDRVTITCRASQDIRNDLAWYQQKPGKAPKRLIYAASSLQSGVPSRFSGSGSGTEFTLTISSLQPEDFATYYCLQHNSYPLTFGCGTKLEIK
notes: periplasmic prep
B10: FL-37 scFv (scFv)
scFv: QVTLKESGPVLVKPTETLTLTCTVSGFSLRNIKMGVSWIRQPPGKALEWLAHIFSNDEKSYSTSLKSRLTISKDTSKSQVVLTLTNMDPVDTATYFCARMPEYSSGWSGAFDIWGQGTMVTVSSGGGGSGGGGSGGGGSDIQMTQSPSSLSASVGDRVTITCRASQDISNYLAWYQQKPGKAPKRLIYAASSLQSGVPSRFSGSGSGTEFTLTISSLQPEDFATYYCLQHNSFPLTFGGGTKLEIK
notes: periplasmic prep
B11: FL-44 scFv (scFv)
scFv: QVTLKESGPVLVKPTETLTLTCTVSGFSFRNARMGVSWIRQPPGKCLEWLAHIFSNDEKSYSTSLKSRLTISKDTSKSQVVLTLTNMDPVDTATYFCARMPEYSSGWSGAFDIWGQGTMVTVSSGGGGSGGGGSGGGGSDIQMTQSPSSLSASVGDRVTITCRTSQGIRNDLVWYQQKPGKAPKRLIYAASTLQSGVPSRFSGSGSGTEFTLTISSLQPEDFATYFCLQHYSYPLTFGCGTKVEIK
notes: periplasmic prep
B12: FL-43 scFv (scFv)
scFv: QVTLKESGPVLVKPTETLTLTCTVSGFSFRNARMGVSWIRQPPGKCLEWLAHIFSNDEKSYSTSLKSRLTISKDTSKSQVVLTLTNMDPVDTATYFCARMPEYSSGWSGAFDIWGQGTMVTVSSGGGGSGGGGSGGGGSDIQMTQSPSSLSASVGDRVTITCRASQGIRNDLVWYQQKPGKAPKRLIYGTSTLQSGVPSRFSGSGSGTEFTLTISSLQPEDFATYYCLQHNSYPLTFGCGTKVEIK
notes: periplasmic prep
B13: FL-10 scFv (scFv)
scFv: QVTLKESGPVLVKPTETLTLTCTVSGFSFRNARMGVSWIRQPPGKALEWLAHIFSNDEKSYSTSLKSRLTISKDTSKSQVVLTLTNMDPVDTATYFCARMPEYSSGWSGAFDIWGQGTMVTVSSGGGGSGGGGSGGGGSDIQMTQSPSSLSASVGDRVTITCRASQDIRDDLGWYQQKPGNAPKRLIYGASTLQSGVPSRFSGSGSGTEFTLTISSLQPEDFATYYCLQHNSYPLTFGGGTKVDIK
notes: periplasmic prep
B14: FL-22 scFv (scFv)
scFv: QVTLKESGPVLVKPTETLTLTCTVSGFSFRNARMGVSWIRQPPGKALEWLAHIFSNDEKSYSTSLKSRLTISKDTSKSQVVLTLTNMDPVDTATYFCARMPEYSSGWSGAFDIWGQGTMVTVSSGGGGSGGGGSGGGGSDIQMTQSPSSLSASVGDRVTITCRASQGISNYLAWYQQKPGKAPKRLIYAASTLQSGVPSRFSGSGSGTEFTLTISSLQPEDFATYYCLQHNTYPWTFGQGTKVEIK
notes: periplasmic prep

Target: T1, human FLT3 (human, UniProt P36888 27-993)
T1 construct: On transfected CHO cells, or on the FLT3 positive human AML cell lines EOL-1 / MV4-11 where the row says so; also called hu FLT3; full length human FLT3
Experiment: FACS, scFv on CHO-human FLT3 pre-incubated with FLT3 ligand (competitor)
Procedure: The detection was performed using mouse anti-FLAG+PE-conjugated goat anti-mouse and the Fluorescence median detected by FACS (median (+ligand)/median (w/o ligand)*100%)
Afterwards cells were not washed but directly stained with FLT3 binder (scFv's). […] As negative control, cells were incubated with an unspecific scFv instead of FLT3 scFv.
For the evaluation of the data, the fluorescence median was detected by FACS.

Row | median [+ligand]/median [w/o ligand]*100 | Binder
1 | ≥ 75% | B1
2 | ≥ 75% | B2
3 | ≥ 75% | B3
4 | ≥ 75% | B4
5 | ≥ 75% | B5
6 | ≥ 75% | B6
7 | ≥ 75% | B7
8 | ≥ 75% | B8
9 | ≥ 75% | B9
10 | ≥ 75% | B10
11 | ≥ 75% | B11
12 | ≥ 75% | B12
13 | ≥ 75% | B13
14 | ≥ 75% | B14
